Data from the supplement of paper PMC6757056.
± gives the standard deviation of the averaged measurements.

B1: library; a variant is named by its letters at N, in order (parent)
chain: GCUGUCACCGGAAUACCAGCAUCGUCUUGAUGCCCUUGGAAGUCCGGUCUGAUGAGUCCNNNNNGGACGAAACAGC

What was measured:
theophylline [1] = variants of: B1; experiment: FACS-Seq fitted mean relative fluorescence mCherry/BFP without ligand (log10 relative fluorescence); higher = higher reporter protein expression; details: HEK293T, ligand present: no
In short: (§1)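 HEK293T libraries were lentivirally transduced with an mCherry reporter carrying the ribozyme switch and an EF1α-BFP marker, enriched, and incubated for 48 h with or without ligand before sorting into 6 bins by mCherry/BFP. Genomic DNA from each bin was PCR-amplified, barcoded and sequenced on MiSeq. Fluorescence is the fitted normal mean of the bin counts. The fit used log10(mCherry/BFP), and means were scaled to five spiked-in control ribozymes.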

theophylline [2] = variants of: B1; experiment: normalized RNA/DNA level with ligand (relative to sTRSVctl = 100) (log10 (% of sTRSVctl)); higher = less ribozyme self-cleavage, higher mRNA level; details: ligand concentration (+) RNA-Seq: 5 mM, HEK293T, reporter: mCherry (pCS4076), ligand present: yes
In short: (§2)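 Ribozyme switch library plasmids linked to reporters were introduced into HEK293T cells at 4 µg per 6-well well, with ligand, if any, added 1 h before. Total RNA was extracted with EDTA 72 h later, reverse-transcribed, amplified, barcoded and sequenced. RNA level was computed from RNA over DNA reads relative to a spiked-in non-cleaving sequence or the top sequences, then scaled and log-transformed. The top set was 25 sequences, values were ×100 and log10, and the cutoff was ≥100 DNA reads.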

theophylline [3] = variants of: B1; experiment: normalized RNA/DNA level without ligand (relative to sTRSVctl = 100) (log10 (% of sTRSVctl)); higher = less ribozyme self-cleavage, higher mRNA level; details: HEK293T, reporter: mCherry (pCS4076), ligand present: no
In short: as §2

theophylline [4] = variants of: B1; experiment: FACS-Seq fitted mean relative fluorescence mCherry/BFP with ligand (log10 relative fluorescence); ligand concentration (+) FACS-Seq: 1 mM; higher = higher reporter protein expression; details: HEK293T, ligand present: yes
In short: as §1

Variant	FACS-Seq fitted mean (log10) (theophylline [1])	normalized RNA/DNA level with ligand (log10) (theophylline [2])	normalized RNA/DNA level without ligand (log10) (theophylline [3])	FACS-Seq fitted mean (log10) (theophylline [4])
GAGCG	0.793 ± 0.054	1.94 ± 0.066	1.79 ± 0.033	0.81 ± 0.05
GAGCU	0.479 ± 0.21	1.96 ± 0.14	1.8 ± 0.11	0.5269 ± 0.0042
UAUGC	0.174 ± 0.099	2.02 ± 0.087	2 ± 0.11	0.278 ± 0.059
UAUGG	0.926 ± 0.12	1.965 ± 0.014	1.86 ± 0.12	0.992 ± 0.017
UAUGU	0.685 ± 0.011	2.111 ± 0.021	1.97 ± 0.035	0.621 ± 0.026
UAUGA	0.56 ± 0.0061	1.92 ± 0.051	1.57 ± 0.064	0.686 ± 0.033
ACACU	0.829 ± 0.042	2.04 ± 0.094	1.85 ± 0.14	0.802 ± 0.071
ACACG	1.12 ± 0.1	1.93 ± 0.024	1.8 ± 0.026	1.2 ± 0.07
ACACC	0.952 ± 0.087	1.99 ± 0.12	2 ± 0.022	1.11 ± 0.06
ACACA	0.454 ± 0.049	1.94 ± 0.051	1.77 ± 0.036	0.653 ± 0.055
UAUCG	1.02 ± 0.21	2.07 ± 0.028	2 ± 0.07	0.934 ± 0.064
UAUCC	0.705 ± 0.11	2.007 ± 0.016	2.02 ± 0.14	0.572 ± 0.019
ACAUG	0.862 ± 0.2	1.913 ± 0.0094	1.81 ± 0.02	1.01 ± 0.017
ACAUA	0.248 ± 0.061	1.94 ± 0.1	1.72 ± 0.045	0.427 ± 0.032
ACAUU	1.04 ± 0.16	2 ± 0.036	1.85 ± 0.042	1.15 ± 0.18
ACAUC	0.595 ± 0.053	2 ± 0.098	1.94 ± 0.03	0.599 ± 0.055
AAGUU	0.341 ± 0.057	1.939 ± 0.0073	1.75 ± 0.073	0.39 ± 0.035
AAGUA	0.448 ± 0.1	2 ± 0.064	1.63 ± 0.12	0.35 ± 0.062
